{
  "source": "patent US20240391991A1",
  "about": "“MODULATION OF WNT SIGNALLING IN PULMONARY DISORDERS” (Surrozen Operating, Inc., priority 2021, published 2024)",
  "molecules": {"B1": {"name": "SWAP5: FZD-1,2,5,7,8-specific Wnt agonist; anti-FZD antibody with LRP6 VHH on light chain N-terminus; SEQ ID NO: 1 and 2 (protein)", "chain 1": "EVQLVQSGAEVKKPGASVKVSCKASGYTFTSYGISWVRQAPGQGLEWMGWISAYNGNTNYAQKLQGRVTMTTDTSTSTAYMELRSLRSDDTAVYYCASSKEKATYYYGMDVWGQGTTVTVSSASTKGPSVFPLAPSSKSTSGGTAALGCLVKDYFPEPVTVSWNSGALTSGVHTFPAVLQSSGLYSLSSVVTVPSSSLGTQTYICNVNHKPSNTKVDKKVEPKSCDKTHTCPPCPAPEAAGGPSVFLFPPKPKDTLMISRTPEVTCVVVDVSHEDPEVKFNWYVDGVEVHNAKTKPREEQYNSTYRVVSVLTVLHQDWLNGKEYKCKVSNKALGAPIEKTISKAKGQPREPQVYTLPPSREEMTKNQVSLTCLVKGFYPSDIAVEWESNGQPENNYKTTPPVLDSDGSFFLYSKLTVDKSRWQQGNVFSCSVMHEALHNHYTQKSLSLSPGK", "chain 2": "DVQLVESGGGLVQAGGSLRLACAGSGRIFAIYDIAWYRHPPGNQRELVAMIRPVVTEIDYADSVKGRFTISRNNAMKTVYLQMNNLKPEDTAVYYCNAKRPWGSRDEYWGQGTQVTVSSGSGSGQAVVLQEPSLSVSPGGTVTLTCGLSSGSVSTNYYPSWYQQTPGQAPRTLIYYTNTRSSDVPERFSGSIVGNKAALTITGAQPDDESVYFCLLYLGRGIWVFGGGTKLTVLGQPKAAPSVTLFPPSSEELQANKATLVCLISDFYPGAVTVAWKADSSPVKAGVETTTPSKQSNNKYAASSYLSLTPEQWKSHRSYSCQVTHEGSTVEKTVAPTECS"}, "B2": {"name": "SWAP6: FZD1,2,7-specific Wnt agonist; anti-FZD antibody with LRP6 VHH on light chain N-terminus; SEQ ID NO: 12 and 11 (protein)", "chain 1": "QVQLQQWGAGLLKPSETLSLTCAVSGASFSGHYWTWIRQPPGKGLEWIGEIDHTGSTNYEPSLRSRVTISVDTSKNQFSLNLKSVTAADTAVYYCARGGQGGYDWGHYHGLDVWGQGTTVTVSSASTKGPSVFPLAPSSKSTSGGTAALGCLVKDYFPEPVTVSWNSGALTSGVHTFPAVLQSSGLYSLSSVVTVPSSSLGTQTYICNVNHKPSNTKVDKKVEPKSCDKTHTCPPCPAPEAAGGPSVFLFPPKPKDTLMISRTPEVTCVVVDVSHEDPEVKFNWYVDGVEVHNAKTKPREEQYNSTYRVVSVLTVLHQDWLNGKEYKCKVSNKALGAPIEKTISKAKGQPREPQVYTLPPSREEMTKNQVSLTCLVKGFYPSDIAVEWESNGQPENNYKTTPPVLDSDGSFFLYSKLTVDKSRWQQGNVFSCSVMHEALHNHYTQKSLSLSPGK", "chain 2": "DVQLVESGGGLVQAGGSLRLACAGSGRIFAIYDIAWYRHPPGNQRELVAMIRPVVTEIDYADSVKGRFTISRNNAMKTVYLQMNNLKPEDTAVYYCNAKRPWGSRDEYWGQGTQVTVSSGSGSGSYVLTQPPSVSVSPGQTASITCSGDKVGHKYASWYQQKPGQSPVLVIYEDSQRPSGIPVRFSGSNSGNTATLTISGTQAMDEADYYCQAWDSSTDVVFGGGTKLTVLGQPKAAPSVTLFPPSSEELQANKATLVCLISDFYPGAVTVAWKADSSPVKAGVETTTPSKQSNNKYAASSYLSLTPEQWKSHRSYSCQVTHEGSTVEKTVAPTECS"}},
  "system": "acute bleomycin mouse model",
  "test": "Bleomycin-induced acute lung injury (fibrosis) mouse model",
  "assay_type": "in vivo",
  "settings": "for fibrosis score (Modified Ashcroft): FIGS. 10-12",
  "source_text": "The acute lung injury (single bleomycin treatment; FIG. 1) and chronic intermittent/low dose bleomycin mouse models (FIG. 2) were used to determine the therapeutic effects of Wnt antagonist and agonist (administered concurrently or sequentially or individually) in combination with or without anti-fibrotic drugs (e.g., pirfenidone and nintedanib) to assess effects on anti-fibrotic and improved respiratory functions (see, e.g., Degryse, A. et al. (2010) Am J Physiol Lung Cell Mol Physiol. 299:442-52). Improvement of fibrosis was observed upon treatment with a WNT agonist, SWAP5 (see, e.g., FIG. 7, FIG. 10). Specifically, bleomycin was administered intratracheally to the mice at day 0, and animals were treated twice weekly with an agonist approach—combination of SWAP5 (FZD1,2,5,7,8 multi-FZD-specific SWAP) and RSPO2 (combo)—for two weeks starting at day 7 until termination at day 21. […] Improvement of fibrosis was also observed upon treatment with a Wnt agonist or the Wnt signaling enhancer RSPO2 alone (FIG. 10).",
  "key": {"[1]": {"settings": "agent alone, dosed four times between week 1 and week 3, vs anti-GFP"}, "[2]": {"settings": "combination of SWAP5 and RSPO2 (combo), twice weekly day 7 to day 21, FIG. 7"}},
  "note": "Entries after “also recorded” stand apart in the source; their conditions may differ.",
  "data": [
    {"molecule": "B1", "values": [
      {"measurement": "percentage of lung area affected by fibrosis", "setting": "agent alone, dosed four times between week 1 and week 3, vs anti-GFP, FIGS. 10-11", "result": "reduced the fibrosis score and percentage of lung area affected; also recorded: reduce the area of the lung that is fibrotic"},
      {"measurement": "fibrosis score (Modified Ashcroft)", "setting": "[1]", "result": "reduced the fibrosis score; also recorded: lower the severity of fibrosis"},
      {"measurement": "area (percent) of lung affected by fibrosis", "setting": "[2]", "result": "reduction in the degree of fibrosis severity and the area of the lung affected by fibrosis; also recorded: reduce the area of the lung that is fibrotic"},
      {"measurement": "fibrosis severity (fibrosis score)", "setting": "[2]", "result": "reduction in the degree of fibrosis severity; also recorded: lower the severity of fibrosis"}
    ]},
    {"molecule": "B2", "values": [
      {"measurement": "fibrosis score (Modified Ashcroft)", "setting": "[1]", "result": "caused a trend of reduction in the extent of fibrosis"}
    ]}
  ]
}
